Data as given in the domain aggregation screens of Martell et al. (2025).

Experiment: soluble fraction after stress (log2 fold change); higher = more stays soluble; pooled small domains, quantitative proteomics
Settings: stress: 50 degC
Procedure, shortened: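 The measure of aggregation propensity here is the base-two logarithm of the fold change in the soluble amount of each protein after stress. A higher value means more of that protein stays in solution. Stress was applied at 50°C to pooled libraries of small protein domains, read out by high-throughput quantitative proteomics.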

**Q.** Which “soluble fraction (log2)” value does the source give for “HMVVLPGEVVALKIIQTGSSKDQGVGYLEDGTMVVVDGAKNSIGKTIEIQISRSHQTVAGRMLFGIAMS” here?
**A.** -1.24

**Q.** Which “soluble fraction (log2)” value does the source give for “HMIKNDIGKFIKLYRETHQWSQRELAEHLGVSQRNVSYYEKGERIPPADVLKKLSTLFDVPVDVLLGLK” here?
**A.** -0.43

**Q.** Which “soluble fraction (log2)” value does the source give for “HMGPTGGLTPHIAIADKRASEAIEFYKQAFGAVEQVRMPAEDGVRLMHAHLLVNGSSLMMHDDFPEYSGQ” here?
**A.** 0.0526

**Q.** For “HMTAMQYVTIKDIADALGISKSSVSRALAGDVHNVSAQTIERVRAKALEMGYLRNNAAVNLR”, which “soluble fraction (log2)” value is on record?
**A.** -0.0718

**Q.** With “HMRYFDDEELNNKFLEFLSMRKKIRKPVRTDRALKALLKKLHELSGGDVGLMKQIIDQSLDKEWLGLFEL” as the sequence, how does the “soluble fraction (log2)” value read?
**A.** -0.422

**Q.** For “HMQDNDLKNQIENVLRTYPDNVFTVEKIADVLRSHGSAAFKLIVQELASLERDKVAVVTEDGKFQLNPD”, which “soluble fraction (log2)” value is on record?
**A.** 0.125

**Q.** With “HMQLGEEAGDELVAIVRSVINDNDKALADYLAGKSSALKFLLGQVMRQTKGRADHALVQSLLEAELEAL” as the sequence, how does the “soluble fraction (log2)” value read?
**A.** -0.169

**Q.** For “HMDLLKANNLSQINVDKLTDEEILKYSQQLKQSGLTESQAEQIAIARGMPATEIAKLKQRLISLTNMQ”, which “soluble fraction (log2)” value is on record?
**A.** 0.133

**Q.** For “HMQLYSLEVLSKKKVDLIENNKNLINLYFNKENGEYSYRLIFKNRKELYQVKDTLDNSSDVVSIKLDL”, which “soluble fraction (log2)” value is on record?
**A.** -0.863

**Q.** With “HMSFYSVVISQDGSMLVAENRNEIYSNEELLELASEVNEKTGTIGTIGSLMYYKADKGGYTLITFLDNS” as the sequence, how does the “soluble fraction (log2)” value read?
**A.** -3.02

**Q.** Which “soluble fraction (log2)” value does the source give for “HMIPDPPALGSNLHRERRRQQLSLDALAAASGVSKAMLSQIEADKVNPTIATMWKIAHALNIDFETLLRGE” here?
**A.** -0.283

**Q.** For “HMKLTPKQQQIYDFISSFADEHGYPPSVREIAQAVNLKSPATVHFHLKGLREAGYISQAEGKTRAITI”, which “soluble fraction (log2)” value is on record?
**A.** -0.117

**Q.** Which “soluble fraction (log2)” value does the source give for “HMIEESTVPDLKGKSQEDAIKLLEDANLKYQIVEEESKKIEAGYVISQETDANKKVNAGDTVIIHVST” here?
**A.** 0.295

**Q.** For “HMLAGKTYEVQTESGGKWTLVASYNVKSQAIQQAQALLESHKYSGVKVIAESDRKGEEVIFNEQSEVT”, which “soluble fraction (log2)” value is on record?
**A.** -0.0442

**Q.** For “HMEEIIPIRFLRHRVKRRETIFGLTQKYNITEDQLKRYNTRLYSEALERKMVLQIPVFPEVDED”, which “soluble fraction (log2)” value is on record?
**A.** -2.31

**Q.** With “HMREVPHGEYEVKIEKLELVESKAGDPMVTVWFKVLAGDYKGSMIFMNQVITKGFQIHIMNEFLR” as the sequence, how does the “soluble fraction (log2)” value read?
**A.** -0.256

**Q.** With “HMIDIGSKIKKLRSKKSIEIGKKYTGAMLANELGISRSYLGDIESGRTVPNEIILGKIADIFDVDIYELIG” as the sequence, how does the “soluble fraction (log2)” value read?
**A.** -0.256

**Q.** For “HMANSANARKSLVSKLIAGGKIASQSDLVKALKKQGIVVTQGTASRDLEDIGAIRVRNSEGEIVYALT”, which “soluble fraction (log2)” value is on record?
**A.** 0.081

**Q.** Which “soluble fraction (log2)” value does the source give for “HMQILLASHAELAKGILSAVELIAGTQQNLKAYSAYTEAVDVHFKDQMLQDLNKMDPEDEVIL” here?
**A.** 0.0294

**Q.** With “HMKTGHLPVTVIIDGRIISDNLYKTGLSNNWLADQLRKNSIKSSEDVFFAYLNPERKFIYQLRSNS” as the sequence, how does the “soluble fraction (log2)” value read?
**A.** -1.01

**Q.** With “HMYHPGFEALREVARQGSFIKAARALGISGPAVSKQIKSLEARLNLVLLHRTTRAVTLTEAGQRLTEILD” as the sequence, how does the “soluble fraction (log2)” value read?
**A.** -2.07

**Q.** With “HMEVTLGLGSMVRLLGEPYLGSTGRVVELPDQAERFASGLTAKVAVVERHDGELIRVPVTNLLLME” as the sequence, how does the “soluble fraction (log2)” value read?
**A.** -0.191

**Q.** With “HMEAISSESIKKMIKSYVSGEDASKPLSDQQIADLLVKEGYMISRRTVAKYRDELGILSSSKRKR” as the sequence, how does the “soluble fraction (log2)” value read?
**A.** -0.0456

**Q.** For “HMDTNVPVPNVNGMTLNQAKAALEAAGFHVAVNWLGEKSDNNSVISYEPNGSAAKGTTITITVIAQPEQDG”, which “soluble fraction (log2)” value is on record?
**A.** 0.0386

**Q.** For “HMGKKQLVVDLQSIITDVPAALKSYGLEIGQDGKSLIYTYDTKGERTGITTLLNDLQKAGLQMTDMKTQQ”, which “soluble fraction (log2)” value is on record?
**A.** 0.0536

**Q.** With “HMAGLELVVTREQAGRTVKSLLRGELGISTALMGRLKRTGTGLTVNGTRVFTNAVLREGDRLAVDLDAAE” as the sequence, how does the “soluble fraction (log2)” value read?
**A.** -0.606

**Q.** With “HMGVTDSSYNVLRRQILEMLSVQQRTPADLARLIEADKEEIAAVIRFLLDKGEIQMEDGMLQTK” as the sequence, how does the “soluble fraction (log2)” value read?
**A.** 0.0683

**Q.** Which “soluble fraction (log2)” value does the source give for “HMDEQVETLKNLISELPKEQLEVLVMRHYEDLSFKEISEKTGVSINTALGRMRYALINIRKLMKENN” here?
**A.** -0.223

**Q.** With “HMVDIEQAEFLSRQFDLLLARLDDPTIEWQDIADIRSEYTGENEHRDTIRKGSKLFYEYLQAGWIKN” as the sequence, how does the “soluble fraction (log2)” value read?
**A.** -0.748

**Q.** With “HMKPGWEDIFRMNQIQLEDAVRTVNRDDTLAPTKKAYLIQNLLASRWIVGNQLQAQKDKTTE” as the sequence, how does the “soluble fraction (log2)” value read?
**A.** -0.0813

**Q.** For “HMTETSKLTDAKQLLESILSSGEVSYKDIISAAEEYEIGKRTLMSAKALLSIESIKKTDGWYWTLPH”, which “soluble fraction (log2)” value is on record?
**A.** -0.213

**Q.** For “HMSEVIYVAEDNVGQRIDVFLVNKLVDASRANIQKNIVDGVILVNNKNVKANYKLRLGDVVEIRTQ”, which “soluble fraction (log2)” value is on record?
**A.** 0.156

**Q.** Which “soluble fraction (log2)” value does the source give for “HMSFSQNIGKRIREERLRLNLTQEKLAEDVNLSMAYIGQVERGDRSLTLDNLIIVAKRLGVTIDYLLS” here?
**A.** -1.25

**Q.** For “HMKNYYELLGVAREASQDQIKKAYRKLARKYHPDVSKEADAETRMQELNVAYDTLSDAEKKREYDFQLDHP”, which “soluble fraction (log2)” value is on record?
**A.** 0.00768

**Q.** For “HMEYMKQRLYDIIELFKRSFSPSFSEEEKKKLENVLQDDFLRKAYEQLSDEVFIEEKFREFDGY”, which “soluble fraction (log2)” value is on record?
**A.** -1.73

**Q.** Which “soluble fraction (log2)” value does the source give for “HMGGHLAYGFSRRFGLLIDEQQGEPVIIARPDYSPVHYAEARRIVGQPAALRVVDEQAFNQLLQSQQESGA” here?
**A.** -0.346

**Q.** Which “soluble fraction (log2)” value does the source give for “HMSSSDYDVYNKAINLMLNLLKEPKSIEEVTASLNITKSQAITWINRALNEGKIIKTNRPVRYVVNN” here?
**A.** -0.596

**Q.** With “HMGSDLVAWAQTRIGRHPEEAADVIAALIDRHGEARVRAASRSLLARKFAHASDLRTAIDAAIG” as the sequence, how does the “soluble fraction (log2)” value read?
**A.** -0.0161
